Test results published in the RNAGym collection of RNA variant scans (doi:10.7554/elife.80360).

B1: HDV Ribozyme (parent)
chain: GGCCGGCAUGGUCCCAGCCUCCUCGCUGGCGCCGGCUGGGCAACAUUCCGAGGGGACCGUCCCCUCGGUAAUGGCGAAUGGGACCCA

Variants of: B1
Assay: self-cleavage, relative activity (ratio to wild type); higher = more cleavage; co-transcriptional

Variant | self-cleavage
G54U C86U | 0.882
G54U C86A | 0.799
G54U C86G | 1.01
G53C U69C | 1.01
G53C U69G | 1.14
G54U G80U | 0.203
G54U G80A | 0.257
G54U C61U | 0.895
C57A G67A | 0.926
A56C C64G | 0.831
G53U C57A | 0.944
C57A U65A | 1.09
C57A G80A | 0.218
C57A G80U | 0.253
A56U A83C | 0.499
A56U A83U | 0.318
A56G C66A | 0.909
A56G C66U | 0.937
C57U C75U | 0.188
G53U U65C | 0.819
C57A C84A | 0.789
C57A C84G | 0.727
A56G C86G | 1.17
G55A C61G | 1.06

Variant | self-cleavage
G55A C61A | 0.956
A56U U65C | 1.04
A56U U65G | 0.928
G54U C84U | 0.808
G54U C84G | 0.529
G54U C84A | 0.724
C57G A71C | 0.852
G55C G82A | 0.447
C57U C66G | 1.07
C57U C66A | 0.878
G55A C64U | 1.04
C57U C63G | 1.12
C57U C63U | 0.958
A56C A77G | 1.02
A56U G82A | 0.543
A56U G82U | 0.462
G53C U65C | 0.772
G53C U65A | 0.629
A56C A71U | 1.11
A56C A71C | 0.997
C57A G82U | 0.585
G53C C75G | 0.0627
G53C C75A | 0.175
C57U G67U | 0.974

Variant | self-cleavage
G55A C84U | 0.741
A56G C61U | 1.08
C57U G81U | 0.353
C57A | 1.05
C57G | 1.02
C57U | 0.993
G55A C63U | 0.913
A56U A77U | 0.623
C57U C61U | 0.843
G54U A56U | 0.953
G54A A77C | 0.383
G54U C62A | 0.99
C57G G67A | 0.909
G53U G82C | 0.381
G53C A71G | 1.07
G55A U69A | 0.857
G53C A87C | 1.01
G53U U60A | 0.997
A56C C63G | 0.608
A56G G74C | 0.125
A56C G80U | 0.253
G55U C58A | 0.843
A56C G82C | 0.306
A56C A87U | 0.986

Variant | self-cleavage
G55A U60C | 0.9
G55U C75A | 0.153
G53C C86A | 0.866
G54C G82A | 0.226
G54C G82U | 0.448
G53U G80A | 0.419
G53U G80C | 0.304
G53U G80U | 0.256
A56G U79C | 0.242
A56G U79A | 0.277
G53U A71U | 0.92
G53U C61U | 0.994
G53U C61G | 0.899
G54C C62A | 0.967
G54A U60G | 1.03
A56C U72A | 0.95
G54U U69C | 1.16
A56C C61U | 0.942
C57A C66G | 0.985
C57A A87U | 1.13
C57A A87C | 1.05
G55C G80C | 0.388
A56G U60G | 0.831
G55U A56U | 0.797

Variant | self-cleavage
A56U C58A | 1.16
A56U C58G | 1.08
G53U A78U | 0.251
G54C A78C | 0.191
G54C A78U | 0.324
G54C A78G | 0.507
G53C C85G | 1.01
G53C C85A | 0.955
G53C G74A | 0.405
C57G C61G | 1.08
C57U G59U | 1.2
G54U G55U | 0.921
G54A A87C | 1.06
A56U G59A | 0.926
C57A G74U | 0.356
G53U G55A | 1.18
G54C C64G | 0.787
G54A G80A | 0.443
G55C C86U | 1.12
G55C C86G | 1.09
G54C C86G | 1.02
G54C C86A | 0.962
G53U G81A | 0.445
C57A C62A | 0.997

Variant | self-cleavage
G55C U65G | 1.06
G54U C63U | 0.892
C57G G68A | 1.18
G55A A77C | 0.302
G53C G55C | 1.05
A56U G76C | 1.14
A56U G76U | 0.95
G54A G67U | 0.657
G54A C58U | 1.22
G54A C58A | 0.773
G55A A71U | 0.652
G55A A71C | 0.978
G55A A71G | 1.1
A56G C75U | 0.17
G53U C66A | 0.937
G55C U60C | 1.07
G53U A56U | 0.956
G53U A56G | 1.03
C57U C58U | 1.3
G54A C85A | 0.917
G54A C85U | 0.808
A56U C66A | 1.03
A56U C66G | 0.997
G53U G76A | 1.09

Variant | self-cleavage
A56U U72G | 0.734
G55A C57U | 0.925
G54A C57G | 0.903
G53U C84A | 0.754
G53U C84G | 0.554
C57G G80U | 0.25
A56C A70U | 1.16
A56C A70C | 1.12
A56C A70G | 1.05
G55U G68A | 1.03
G55U C62A | 0.973
G55U C62U | 0.925
G54A A83G | 0.692
G54A A83C | 0.277
G54A A83U | 0.509
G55A U72C | 1
G55A U72G | 0.415
G54U C75G | 0.114
C57A G76U | 1.16
G54C C58A | 0.923
G53U C64A | 0.777
G55U G80A | 0.477
G55A G68C | 0.777
